Laboratory results: article PMC9863593, “Crystal Structure of Allantoinase from Escherichia coli BL21: A Molecular Insight into a Role of the Active Site Loops in Catalysis” (Molecules, 2023)

Target: the molecule itself
Assay: crystal structure; hanging drop vapor diffusion, room temperature, 20% PEG8000, 100 mM CHES pH 9.5; protein at 30 mg/mL; space group C121; four monomers per asymmetric unit; 2.07 Å

B1: Allantoinase from Escherichia coli BL21 (enzyme)
chain: MSFDLIIKNGTVILENEARVVDIAVKGGKIAAIGQDLGDAKEVMDASGLVVSPGMVDAHTHISEPGRSHWEGYETGTRAAAKGGITTMIEMPLNQLPATVDRASIELKFDAAKGKLTIDAAQLGGLVSYNIDRLHELDEVGVVGFKCFVATCGDRGIDNDFRDVNDWQFFKGAQKLGELGQPVLVHCENALICDELGEEAKREGRVTAHDYVASRPVFTEVEAIRRVLYLAKVAGCRLHVCHVSSPEGVEEVTRARQEGQDVTCESCPHYFVLDTDQFEEIGTLAKCSPPIRDLENQKGMWEKLFNGEIDCLVSDHSPCPPEMKAGNIMEAWGGIAGLQNCMDVMFDEAVQKRGMSLPMFGKLMATNAADIFGLQQKGRIAPGKDADFVFIQPNSSYVLTNDDLEYRHKVSPYVGRTIGARITKTILRGDVIYDIEQGFPVAPKGQFILKHQQ
modifications: carbamylated lysine at 146 (Kcx146)
notes: Allantoinase (allB, ECD_00462) of E. coli BL21; predicted monomer of 453 amino acid residues, 49.6 kDa; Zinc-amended enzyme with 2 Zn ions per monomer; construct limits and tag are not described here; Residues 452-453 are said to be seen in the structure; also called EcALLase-BL21; E. coli BL21 ALLase
- stoichiometry N: 4
